Laboratory results from patent publication US20180282373A1 (RESEARCH FOUNDATION FOR THE STATE UNIVERSITY OF NEW YORK, published 2018).

Tests used:
[1] = molecular target: T1, purified recombinant full-length WDR5 (UniProt P61964 2-334); experiment: cell-based or functional assay
[2] = molecular target: T1, purified recombinant full-length WDR5; experiment: cell-based or functional assay; remark: listed apart in the source
[3] = molecular target: T1, purified recombinant full-length WDR5; experiment: ITC, Kd compared with Table I
Experimental: (§1) In the present disclosure, we synthesized a six-residue peptidomimetic.
(§2) Isothermal titration calorimetry (ITC). […] ITC experiments were carried out at 20° C. using a VP-ITC micro-calorimeter (MicroCal). […] Reference power was set to 10 μCal/sec and stirring speed was set to 295 rpm. Data were integrated using NITPIC. SEDPHAT was used to fit the integrated data to a single-site heterogeneous association model, using simulated annealing and Maxquardt-Levenberg algorithms. Automatic confidence interval search with projection method was applied to estimate the error of the determined thermodynamic parameters. Confidence interval was set to 2σ (95%). ITC figure was generated using GUSSI.

[4] = molecular target: T1, purified recombinant full-length WDR5; experiment: ITC at 20 C, Win6mer (200 µM) titrated into full-length WDR5 (20 µM); 95% confidence interval 1.7-4.2 nM
Experimental: as §1, §2

[5] = molecular target: T1, purified recombinant full-length WDR5; experiment: GST pull-down with purified WDR5, Coomassie-stained gel
[6] = molecular target: endogenous WDR5 (MCF-7 cell extracts; T-REx HEK293 nuclear extracts) (human, UniProt P61964 2-334); experiment: anti-Flag co-immunoprecipitation from T-REx HEK293 cells, Western blot
Experimental: Co-immunoprecipitation from mammalian cells. […] Following induction with doxycycline, nuclear extracts were prepared as described and incubated with anti-Flag M2 agarose beads (Sigma) for 3 h. Bound proteins were eluted with SDS sample buffer after extensive washing and analyzed by Western blotting.

B1: Win6mer, Ac-ARTEVY-NH2 (SEQ ID NO:8, N-terminus acetylated and C-terminus amidated) (peptide)
peptide: Ac-ARTEVY-NH2
notes: Synthesized by GenScript; also called 6-mer Win motif peptidomimetic
IC50, inhibition of MLL1 core complex, 0.5 µM enzyme complex assayed [1]: 300 nM
IC50, inhibition of MLL1 core complex, 1 µM enzyme complex assayed [1]: 800 nM
IC50, inhibition of MLL1 core complex, 1.8 µM enzyme complex assayed [1]: 2200 nM
average IC50, inhibition of MLL1 core complex (2 µM of enzyme complex assayed) [1]: 2200 nM
average IC50, inhibition of SETd1A core complex (2 µM of enzyme complex assayed) [1]: 2500 nM
IC50, inhibition of MLL1 core complex methyltransferase activity, H3K4me0 substrate (scintillation proximity assay) [2]: 2300 nM
IC50, inhibition of MLL1 core complex methyltransferase activity, H3K4me1 substrate (scintillation proximity assay) [2]: 2200 nM
IC50, inhibition of SETd1A core complex methyltransferase activity, H3K4me0 substrate (scintillation proximity assay) [2]: 3200 nM
IC50, inhibition of SETd1A core complex methyltransferase activity, H3K4me1 substrate (scintillation proximity assay) [2]: 2900 nM
IC50, inhibition of SETd1A core complex methyltransferase activity, H3K4me2 substrate (scintillation proximity assay) [2]: 2400 nM
fold increase in binding affinity over the best naturally occurring Win motif sequence [3]: ~18 fold
Kd [4]: 2.9 nM

B2: GST-tagged SETd1B Win-SET domain, Setd1B(1727-1966), R1748A (enzyme)
chain: LSSAKKKKRDDGIREHVTGCAASEGFYTIDKKDKLRYLNSSRASTDEPPADTQGMSIPAQPHASTRAGSERRSEQRRLLSSFTGSCDSDLLKFNQLKFRKKKLKFCKSHIHDWGLFAMEPIAADEMVIEYVGQNIRQVIADMREKRYEDEGIGSSYMFRVDHDTIIDATKCGNFARFINHSCNPNCYAKVITVESQKKIVIYSKQHINVNEEITYDYKFPIEDVKIPCLCGSENCRGTLN
notes: also called SETd1B^R1748A; SETd1B Win motif mutant; not shown: GST tag of the pGST parallel vector, with its linker, at the N end
binding result [5]: no binding (tested: 3 µM)

B3: Flag-tagged full-length human SETd1B, Win motif arginine to alanine mutant (enzyme)
chain: MENSHPPHHHHQQPPPQPGPSGERRNHHWRSYKLMIDPALKKGHHKLYRYDGQHFSLAMSSNRPVEIVEDPRVVGIWTKNKELELSVPKFKIDEFYVGPVPPKQVTFAKLNDNIRENFLRDMCKKYGEVEEVEILYNPKTKKHLGIAKVVFATVRGAKDAVQHLHSTSVMGNIIHVELDTKGETRMRFYELLVTGRYTPQTLPVGELDAVSPIVNETLQLSDALKRLKDGGLSAGCGSGSSSVTPNSGGTPFSQDTAYSSCRLDTPNSYGQGTPLTPRLGTPFSQDSSYSSRQPTPSYLFSQDPAVTFKARRHESKFTDAYNRRHEHHYVHNSPAVTAVAGATAAFRGSSDLPFGAVGGTGGSSGPPFKAQPQDSATFAHTPPPAQATPAPGFKSAFSPYQTPVAHFPPPPEEPTATAAFGARDSGEFRRAPAPPPLPPAEPLAKEKPGTPPGPPPPDTNSMELGGRPTFGWSPEPCDSPGTPTLESSPAGPEKPHDSLDSRIEMLLKEQRTKLLFLREPDSDTELQMEGSPISSSSSQLSPLAPFGTNSQPGFRGPTPPSSRPSSTGLEDISPTPLPDSDEDEELDLGLGPRPPPEPGPPDPAGLLSQTAEVALDLVGDRTPTSEKMDEGQQSSGEDMEISDDEMPSAPITSADCPKPMVVTPGAAAVAAPSVLAPTLPLPPPPGFPPLPPPPPPPPPQPGFPMPPPLPPPPPPPPPAHPAVTVPPPPLPAPPGVPPPPILPPLPPFPPGLFPVMQVDMSHVLGGQWGGMPMSFQMQTQVLSRLMTGQGACPYPPFMAAAAAAASAGLQFVNLPPYRGPFSLSNSGPGRGQHWPPLPKFDPSVPPPGYMPRQEDPHKATVDGVLLVVLKELKAIMKRDLNRKMVEVVAFRAFDEWWDKKERMAKASLTPVKSGEHKDEDRPKPKDRIASCLLESWGKGEGLGYEGLGLGIGLRGAIRLPSFKVKRKEPPDTTSSGDQKRLRPSTSVDEEDEESERERDRDMADTPCELAKRDPKGVGVRRRPARPLELDSGGEEDEKESLSASSSSSASSSSGSSTTSPSSSASDKEEEQESTEEEEEAEEEEEEEVPRSQLSSSSTSSTSDKDDDDDDSDDRDESENDDEDTALSEASEKDEGDSDEEETVSIVTSKAEATSSSESSESSEFESSSESSPSSSEDEEEVVAREEEEEEEEEEMVAEESMASAGPEDFEQDGEEAALAPGAPAVDSLGMEEEVDIETEAVAPEERPSMLDEPPLPVGVEEPADSREPPEEPGLSQEGAMLLSPEPPAKEVEARPPLSPERAPEHDLEVEPEPPMMLPLPLQPPLPPPRPPRPPSPPPEPETTDASHPSVPPEPLAEDHPPHTPGLCGSLAKSQSTETVPATPGGEPPLSGGSSGLSLSSPQVPGSPFSYPAPSPSLSSGGLPRTPGRDFSFTPTFSEPSGPLLLPVCPLPTGRRDERSGPLASPVLLETGLPLPLPLPLPLPLALPAVLRAQARAPTPLPPLLPAPLASCPPPMKRKPGRPRRSPPSMLSLDGPLVRPPAGAALGRELLLLPGQPQTPVFPSTHDPRTVTLDFRNAGIPAPPPPLPPQPPPPPPPPPVEPTKLPFKELDNQWPSEAIPPGPRGRDEVTEEYMELAKSRGPWRRPPKKRHEDLVPPAGSPELSPPQPLFRPRSEFEEMTILYDIWNGGIDEEDIRFLCVTYERLLQQDNGMDWLNDTLWVYHPSTSLSSAKKKKRDDGIREHVTGCAASEGFYTIDKKDKLRYLNSSRASTDEPPADTQGMSIPAQPHASTRAGSERRSEQRRLLSSFTGSCDSDLLKFNQLKFRKKKLKFCKSHIHDWGLFAMEPIAADEMVIEYVGQNIRQVIADMREKRYEDEGIGSSYMFRVDHDTIIDATKCGNFARFINHSCNPNCYAKVITVESQKKIVIYSKQHINVNEEITYDYKFPIEDVKIPCLCGSENCRGTLN
notes: mature; also called SETd1B Win motif mutant (full-length); not shown: Flag tag
binding result [6]: no binding
